Reference: PMC12102759 (2025)

B1: NOTCH4 peptide 1606-1621 (Neurogenic locus notch homolog protein 4), 16-mer library wild type / NSP9 (ORF1ab Nsp9, residues 4141-4253) (parent complex)
chain 1: QGAWLGAPEPWEPLLD
chain 2: NNELSPVALRQMSCAAGTTQTACTDDNALAYYNTTKGGRFVLALLSDLQDLKWARFPKSDGTGTIYTELEPPCRFVTDTPKGPKVKYLYFIKGLNNLNRGMVLGSLAATVRLQ

Variants of: B1
Assay: bait immobilised on MaxiSorp plates (10 µg), library pre-cleared on GST, 2 h binding at 4 °C, five washes; one round per day, days 1-4; value from days 2 and 3

In order of falling screen value:
1. chain 1 E12W  0.0479 average fractional NGS count over selection days 2 and 3 (reads of this peptide / all reads for the bait, averaged over …
2. chain 1 E9L  0.0321 average fractional NGS count over selection days 2 and 3 (reads of this peptide / all reads for the bait, averaged over …
3. chain 1 A7H  0.0144 average fractional NGS count over selection days 2 and 3 (reads of this peptide / all reads for the bait, averaged over …
4. chain 1 A3M  0.0101 average fractional NGS count over selection days 2 and 3 (reads of this peptide / all reads for the bait, averaged over …
5. chain 1 L15A  0.00794 average fractional NGS count over selection days 2 and 3 (reads of this peptide / all reads for the bait, averaged over …
6. chain 1 E9M  0.00679 average fractional NGS count over selection days 2 and 3 (reads of this peptide / all reads for the bait, averaged over …
7. chain 1 A7V  0.00673 average fractional NGS count over selection days 2 and 3 (reads of this peptide / all reads for the bait, averaged over …
8. chain 1 E12S  0.00302 average fractional NGS count over selection days 2 and 3 (reads of this peptide / all reads for the bait, averaged over …
9. chain 1 L15V  0.00299 average fractional NGS count over selection days 2 and 3 (reads of this peptide / all reads for the bait, averaged over …
10. chain 1 A7T  0.00295 average fractional NGS count over selection days 2 and 3 (reads of this peptide / all reads for the bait, averaged over …
11. chain 1 E9S  0.00294 average fractional NGS count over selection days 2 and 3 (reads of this peptide / all reads for the bait, averaged over …
12. chain 1 E12L  0.00277 average fractional NGS count over selection days 2 and 3 (reads of this peptide / all reads for the bait, averaged over …
13. chain 1 A3Y  0.00272 average fractional NGS count over selection days 2 and 3 (reads of this peptide / all reads for the bait, averaged over …
14. chain 1 P13M  0.00222 average fractional NGS count over selection days 2 and 3 (reads of this peptide / all reads for the bait, averaged over …
15. chain 1 L15E  0.00221 average fractional NGS count over selection days 2 and 3 (reads of this peptide / all reads for the bait, averaged over …
16. chain 1 E9T  0.00217 average fractional NGS count over selection days 2 and 3 (reads of this peptide / all reads for the bait, averaged over …
17. chain 1 A3I  0.00198 average fractional NGS count over selection days 2 and 3 (reads of this peptide / all reads for the bait, averaged over …
18. chain 1 L15S  0.00194 average fractional NGS count over selection days 2 and 3 (reads of this peptide / all reads for the bait, averaged over …
19. chain 1 A7N  0.00161 average fractional NGS count over selection days 2 and 3 (reads of this peptide / all reads for the bait, averaged over …
20. chain 1 L15T  0.00153 average fractional NGS count over selection days 2 and 3 (reads of this peptide / all reads for the bait, averaged over …
21. chain 1 G6P  0.00151 average fractional NGS count over selection days 2 and 3 (reads of this peptide / all reads for the bait, averaged over …
22. chain 1 L15K  0.00133 average fractional NGS count over selection days 2 and 3 (reads of this peptide / all reads for the bait, averaged over …
23. chain 1 P13D  0.00132 average fractional NGS count over selection days 2 and 3 (reads of this peptide / all reads for the bait, averaged over …
24. chain 1 P13F  0.0013 average fractional NGS count over selection days 2 and 3 (reads of this peptide / all reads for the bait, averaged over …
25. chain 1 E9P  0.00127 average fractional NGS count over selection days 2 and 3 (reads of this peptide / all reads for the bait, averaged over …
26. chain 1 E12K  0.00114 average fractional NGS count over selection days 2 and 3 (reads of this peptide / all reads for the bait, averaged over …
27. chain 1 A3T  0.00113 average fractional NGS count over selection days 2 and 3 (reads of this peptide / all reads for the bait, averaged over …
28. chain 1 A7Q  0.00107 average fractional NGS count over selection days 2 and 3 (reads of this peptide / all reads for the bait, averaged over …
29. chain 1 P13R  0.00106 average fractional NGS count over selection days 2 and 3 (reads of this peptide / all reads for the bait, averaged over …
30. chain 1 P8H  0.00106 average fractional NGS count over selection days 2 and 3 (reads of this peptide / all reads for the bait, averaged over …
31. chain 1 E12P  0.00101 average fractional NGS count over selection days 2 and 3 (reads of this peptide / all reads for the bait, averaged over …
32. chain 1 P8T  0.001 average fractional NGS count over selection days 2 and 3 (reads of this peptide / all reads for the bait, averaged over …
33. chain 1 E9N  0.000953 average fractional NGS count over selection days 2 and 3 (reads of this peptide / all reads for the bait, averaged over …
34. chain 1 P8L  0.000953 average fractional NGS count over selection days 2 and 3 (reads of this peptide / all reads for the bait, averaged over …
35. chain 1 P8I  0.000952 average fractional NGS count over selection days 2 and 3 (reads of this peptide / all reads for the bait, averaged over …
36. chain 1 A7L  0.000927 average fractional NGS count over selection days 2 and 3 (reads of this peptide / all reads for the bait, averaged over …
37. chain 1 A7S  0.00083 average fractional NGS count over selection days 2 and 3 (reads of this peptide / all reads for the bait, averaged over …
38. chain 1 P8S  0.00076 average fractional NGS count over selection days 2 and 3 (reads of this peptide / all reads for the bait, averaged over …
39. chain 1 A3Q  0.000713 average fractional NGS count over selection days 2 and 3 (reads of this peptide / all reads for the bait, averaged over …
40. chain 1 E9Q  0.000696 average fractional NGS count over selection days 2 and 3 (reads of this peptide / all reads for the bait, averaged over …
41. chain 1 P8A  0.000677 average fractional NGS count over selection days 2 and 3 (reads of this peptide / all reads for the bait, averaged over …
42. chain 1 A7M  0.000666 average fractional NGS count over selection days 2 and 3 (reads of this peptide / all reads for the bait, averaged over …
43. chain 1 P8F  0.000628 average fractional NGS count over selection days 2 and 3 (reads of this peptide / all reads for the bait, averaged over …
44. chain 1 A7Y  0.000616 average fractional NGS count over selection days 2 and 3 (reads of this peptide / all reads for the bait, averaged over …
45. chain 1 L15M  0.000609 average fractional NGS count over selection days 2 and 3 (reads of this peptide / all reads for the bait, averaged over …
46. chain 1 A7P  0.000551 average fractional NGS count over selection days 2 and 3 (reads of this peptide / all reads for the bait, averaged over …
47. chain 1 G6D  0.000544 average fractional NGS count over selection days 2 and 3 (reads of this peptide / all reads for the bait, averaged over …
48. chain 1 A7D  0.00053 average fractional NGS count over selection days 2 and 3 (reads of this peptide / all reads for the bait, averaged over …
49. chain 1 P8W  0.000478 average fractional NGS count over selection days 2 and 3 (reads of this peptide / all reads for the bait, averaged over …
50. chain 1 P8M  0.00044 average fractional NGS count over selection days 2 and 3 (reads of this peptide / all reads for the bait, averaged over …
51. chain 1 P8Y  0.000389 average fractional NGS count over selection days 2 and 3 (reads of this peptide / all reads for the bait, averaged over …
52. chain 1 P13T  0.000368 average fractional NGS count over selection days 2 and 3 (reads of this peptide / all reads for the bait, averaged over …
53. chain 1 L15D  0.000339 average fractional NGS count over selection days 2 and 3 (reads of this peptide / all reads for the bait, averaged over …
54. chain 1 L15R  0.000322 average fractional NGS count over selection days 2 and 3 (reads of this peptide / all reads for the bait, averaged over …
55. chain 1 P13W  0.000306 average fractional NGS count over selection days 2 and 3 (reads of this peptide / all reads for the bait, averaged over …
56. chain 1 P13N  0.000298 average fractional NGS count over selection days 2 and 3 (reads of this peptide / all reads for the bait, averaged over …
57. chain 1 P8G  0.000266 average fractional NGS count over selection days 2 and 3 (reads of this peptide / all reads for the bait, averaged over …
58. chain 1 A7W  0.000255 average fractional NGS count over selection days 2 and 3 (reads of this peptide / all reads for the bait, averaged over …
59. chain 1 P13S  0.000244 average fractional NGS count over selection days 2 and 3 (reads of this peptide / all reads for the bait, averaged over …
60. chain 1 L15N  0.00024 average fractional NGS count over selection days 2 and 3 (reads of this peptide / all reads for the bait, averaged over …
61. chain 1 E9A  0.000237 average fractional NGS count over selection days 2 and 3 (reads of this peptide / all reads for the bait, averaged over …
62. chain 1 E9Y  0.000233 average fractional NGS count over selection days 2 and 3 (reads of this peptide / all reads for the bait, averaged over …
63. chain 1 P8N  0.000215 average fractional NGS count over selection days 2 and 3 (reads of this peptide / all reads for the bait, averaged over …
64. chain 1 E12D  0.000215 average fractional NGS count over selection days 2 and 3 (reads of this peptide / all reads for the bait, averaged over …
65. chain 1 P13H  0.000211 average fractional NGS count over selection days 2 and 3 (reads of this peptide / all reads for the bait, averaged over …
66. chain 1 P8Q  0.000198 average fractional NGS count over selection days 2 and 3 (reads of this peptide / all reads for the bait, averaged over …
67. chain 1 A7E  0.000192 average fractional NGS count over selection days 2 and 3 (reads of this peptide / all reads for the bait, averaged over …
68. chain 1 P8D  0.000161 average fractional NGS count over selection days 2 and 3 (reads of this peptide / all reads for the bait, averaged over …
69. chain 1 P13Q  0.000154 average fractional NGS count over selection days 2 and 3 (reads of this peptide / all reads for the bait, averaged over …
70. chain 1 E9F  0.000135 average fractional NGS count over selection days 2 and 3 (reads of this peptide / all reads for the bait, averaged over …
71. chain 1 A7F  0.000134 average fractional NGS count over selection days 2 and 3 (reads of this peptide / all reads for the bait, averaged over …
72. chain 1 L15H  0.00012 average fractional NGS count over selection days 2 and 3 (reads of this peptide / all reads for the bait, averaged over …
73. chain 1 L15F  0.000114 average fractional NGS count over selection days 2 and 3 (reads of this peptide / all reads for the bait, averaged over …
74. chain 1 A3W  0.000101 average fractional NGS count over selection days 2 and 3 (reads of this peptide / all reads for the bait, averaged over …
75. chain 1 P8R  8.2e-05 average fractional NGS count over selection days 2 and 3 (reads of this peptide / all reads for the bait, averaged over …
